From paper PMC3326523 (Cell, 2012) come the findings set out here.

To fix the notation:
B1: CREBBP bromodomain (domain or fragment, human)
chain: RKKIFKPEELRQALMPTLEALYRQDPESLPFRQPVDPQLLGIPDYFDIVKNPMDLSTIKRKLDTGQYQEPWQYVDDVWLMFNNAWLYNRKTSRVYKFCSKLAEVFEQEIDPVMQSLG
notes: the crystallised construct may differ; also called CBP; KAT3A; source: E. coli BL21(DE3), purified (Ni-NTA, TEV, SEC)
B7: BRD3(2), second bromodomain of BRD3 (domain or fragment, human)
chain: GKLSEHLRYCDSILREMLSKKHAAYAWPFYKPVDAEALELHDYHDIIKHPMDLSTVKRKMDGREYPDAQGFAADVRLMFSNCYKYNPPDHEVVAMARKLQDVFEMRFAKMP
notes: BRD3, human, second bromodomain; the crystallised construct may differ; source: E. coli BL21(DE3), purified (Ni-NTA, TEV, SEC)

What all share (conditions): both partners purified
The target of assay [1] is T1, H3K14 peptide KSTGGKacAPRKQY (human, acetyl-lysine at K14 (residue 6 of the peptide)).
T1 construct: histone H3, human; source: synthetic peptide
Kind of assay: ITC; peptide (mM stock) titrated into bromodomain (about 50 μM), by the concentrations in the tables; 10 or 15°C, 50 mM HEPES pH 7.5, 150 mM NaCl; single binding site model. Background: Isothermal titration calorimetry measures the heat released or taken up as one component is titrated into another.

For assay [2], the target named is B7. The description is as above.
The target of the assay “CREBBP bromodomain” is B1. Described as above.
The next assay concerns the target T2, EP300 bromodomain (human, UniProt Q09472 1040-1161).
T2 construct: the crystallised construct may differ; also called KAT3B; source: E. coli BL21(DE3), purified (Ni-NTA, TEV, SEC)
T2 sequence: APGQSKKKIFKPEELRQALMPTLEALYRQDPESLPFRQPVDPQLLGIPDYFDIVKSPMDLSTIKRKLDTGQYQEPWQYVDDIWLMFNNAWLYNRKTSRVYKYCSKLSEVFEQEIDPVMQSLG
The assay is described as above.

The target in assay [3] is FALZ bromodomain (human, UniProt Q12830 2914-3037). Described as above.
Assay [4] addresses T1, H3K14 peptide KSTGGKacAPRKQY. The description is as above. The source holds these as a separate data set.
For assay [5], the target named is T3, H4K12/16/20 peptide GKacGGAKacRHRKacV (human, acetyl-lysine at K12, K16 and K20 (residues 2, 6 and 10 of the peptide)).
T3 construct: histone H4, human; source: synthetic peptide
Kind of assay: ITC; as a1; rows with N of about 0.5 or 0.25: two or more bromodomains on one peptide, apparent binding constants, events not deconvoluted.

The target in assay [6] is T4, H4K8 peptide RGKGGKacGLGKGY (human, acetyl-lysine at K8 (residue 6 of the peptide)).
T4 construct: histone H4, human; source: synthetic peptide
Kind of assay: ITC; peptide (mM stock) titrated into bromodomain (about 50 μM), by the concentrations in the tables; 10 or 15°C, 50 mM HEPES pH 7.5, 150 mM NaCl; single binding site model.

Assay [7] deals with FALZ bromodomain (human, UniProt Q12830 2914-3037). Described as above. The source holds these as a separate data set.
Assay [8] addresses T5, H3K9 peptide KQTARKacSTGGKY (human, acetyl-lysine at K9 (residue 6 of the peptide)).
T5 construct: histone H3, human; source: synthetic peptide
Described as above.

Where no end group is shown, it is not given here.

In general, stoichiometry N refers to the number of molecules, sites or subunits per partner or assembly.

B1: the Kd in assay [1] was 734 ± 90.6 µM.

B2: H3K18 peptide GKAPRKacQLATKY (peptide)
peptide: GKAPRK(Ac)QLATKY
notes: histone H3, human; source: synthetic peptide
B2: in assay [2], the Kd came to 67.1 ± 4.5 µM and the “stoichiometry N” value was found to be 1.06 ± 0.068.

B3: H3K36 peptide ATGGVKacKPHRY (peptide)
peptide: ATGGVK(Ac)KPHRY
notes: histone H3, human; the last Y is Y41 of H3; source: synthetic peptide
As to B3, in the assay with CREBBP bromodomain, the Kd was 71.4 ± 1 µM and the “stoichiometry N” value was found to be 1. Further, in the assay with EP300 bromodomain, the “stoichiometry N” value is 1 ± 0.044.

B4: H2BK85 peptide AHYNKacRSTITSRE (peptide)
peptide: AHYNK(Ac)RSTITSRE
notes: histone H2B, human; source: synthetic peptide
Regarding B4, in the assay with CREBBP bromodomain, the Kd stood at 66.2 ± 3.8 µM and the “stoichiometry N” value was determined as 0.98 ± 0.059.

B5: H4K5 peptide SGRGKacGGKGLY (peptide)
peptide: SGRGK(Ac)GGKGLY
notes: histone H4, human; source: synthetic peptide
Regarding B5, in the assay with FALZ bromodomain [3], the Kd stood at 175 ± 13.3 µM and the “stoichiometry N” value turned out to be 1 ± 0.17.

B6: PCAF bromodomain (domain or fragment, human)
chain: GKEKSKEPRDPDQLYSTLKSILQQVKSHQSAWPFMEPVKRTEAPGYYEVIRFPMDLKTMSERLKNRYYVSKKLFMADLQRVFTNCKEYNPPESEYYKCANILEKFFFSKIKEAGLID
notes: P300/CBP-associated factor, human, bromodomain; the crystallised construct may differ; also called KAT2B; source: E. coli BL21(DE3), purified (Ni-NTA, TEV, SEC)
As to B6, the Kd in assay [4] came out at 188 ± 14.6 µM.
Take B7: the Kd in assay [5] was 61.3 ± 1.9 µM.

B8: KIAA1240 bromodomain (domain or fragment, human)
chain: MEDQEENTLRELRLFLRDVTKRLATDKRFNIFSKPVDIEEVSDYLEVIKEPMDLSTVITKIDKHNYLTAKDFLKDIDLICSNALEYNPDKDPGDKIIRHRACTLKDTAHAIIAAELDPEFNKLCEEIKEARIKRG
notes: KIAA1240 protein, human, bromodomain; the crystallised construct may differ; also called ATAD2B; source: E. coli BL21(DE3), purified (Ni-NTA, TEV, SEC)
As for B8, in [6], the Kd came to 150 ± 6.4 µM.
In the case of RRRRRK(Ac)RRRRRY [poly-R peptide RRRRRKacRRRRRY], in the assay with FALZ bromodomain [7], the Kd was 3.1 ± 0.1 µM and the “stoichiometry N” value turned out to be 1.

B9: H3K56 peptide GTVALREIRRYQKacS (peptide)
peptide: GTVALREIRRYQK(Ac)S
notes: as for B2
Turning to B9, in the assay with CREBBP bromodomain, the Kd amounted to 21.3 ± 1.4 µM and the “stoichiometry N” value was 0.96 ± 0.025. Further, in the assay with EP300 bromodomain, the Kd worked out at 13.4 ± 0.5 µM and the “stoichiometry N” value came to 0.98 ± 0.009.

B10: H3K56 peptide IRRYQKacSTELLY (peptide)
peptide: IRRYQK(Ac)STELLY
notes: as for B2
Turning to B10, in the assay with CREBBP bromodomain, the Kd turned out to be 13.8 ± 0.4 µM and the “stoichiometry N” value came to 0.97 ± 0.013.

B11: H4K44 peptide GGVKacRISGLI (peptide)
peptide: GGVK(Ac)RISGLI
notes: as for B5
In the case of B11, in the assay with CREBBP bromodomain, the Kd is 82 ± 3.8 µM and the “stoichiometry N” value was 1.06 ± 0.01. Also, in the assay with EP300 bromodomain, the Kd was determined as 132 ± 6.3 µM and the “stoichiometry N” value came to 0.97 ± 0.088.

B12: CECR2 bromodomain (domain or fragment)
chain: not shown
notes: CECR2, human, bromodomain; the crystallised construct may differ; source: E. coli BL21(DE3), purified (Ni-NTA, TEV, SEC)
Turning to B12, the Kd in [8] turned out to be 189 ± 11.6 µM; in [1] it was 43.9 ± 0.8 µM.

B13: H4K44 peptide RRGGVKacRISGLY (peptide)
peptide: RRGGVK(Ac)RISGLY
notes: as for B5
With B13, in the assay with CREBBP bromodomain, the Kd was 25.3 ± 0.6 µM and the “stoichiometry N” value was determined as 1 ± 0.099.
